Consider four molecules from article PMC9027083 (International Journal of Molecular Sciences, 2022).

Residue numbers refer to the chain shown, from its start. Numbers in names are those of the source.

The target of experiment [1] is T1, recombinant MBP-EDIII of DENV1 (Dengue virus 1, strain Guiana/FGA89/1989, strain).
T1 construct: also called DENV1 EDIII; envelope protein domain III of DENV1; not shown: MBP, N-terminal, kept
Description: SPR. The note with it: both partners purified.

Experiment [2] concerns the target T2, recombinant MBP-EDIII of DENV3 (Dengue virus 3, strain …, UniProt P27915, strain).
T2 construct: also called DENV3 EDIII; envelope protein domain III of DENV3; not shown: MBP, N-terminal, kept
Description: SPR. The note with it: both partners purified.

B1: 1A1D-2 Fab WT (Fab, V domains shown)
VH: EVQLQQSGAELVKPGASVKLSCTASGFNIKDTYMHWVKQRPEQGLEWIGRIDPANGYSKYDPKFQGKATITADTSSNAAYLQLSSLTSEDTAVYFCARDYEGFAYWGQGTLVTVSS
VL: DIVLTQSPASLAVSLGQRATISCRASESVVRYGNSFMHWYQQKPGQPPKLLIYRASSLESGIPTRFSGSGSRTDFTLTINPVEADDVATYYCQQTNVDPWAFGGGTKLEIK
notes: also called 1A1D-2 WT
As usually defined, the Kd is the free concentration of one partner at which half of the binding sites on the other are occupied at equilibrium, for simple one-to-one binding. A word on the koff: it is the first-order rate constant of dissociation. The term kon denotes the second-order rate constant of association. Take B1: in experiment [1], the Kd was 216 nM, the koff came to 0.00755 s⁻¹ and the kon came out at 34900 M⁻¹ s⁻¹. Also, in experiment [2], the Kd was found to be 91 nM, the koff turned out to be 0.00792 s⁻¹ and the kon worked out at 87000 M⁻¹ s⁻¹.

B2: 1A1D-2 Fab Y105R.H (Fab, V domains shown)
VH: B1 VH with Y105R
VL: B1 VL
For the molecule B2, in experiment [1], the Kd was found to be 42.6 nM, the koff stood at 0.00185 s⁻¹ and the kon was found to be 43500 M⁻¹ s⁻¹. Moreover, in experiment [2], the Kd stood at 49.2 nM, the koff was determined as 0.00419 s⁻¹ and the kon turned out to be 85200 M⁻¹ s⁻¹.

B3: 1A1D-2 Fab A54E.H (Fab, V domains shown)
VH: B1 VH with A54E
VL: B1 VL
Take B3: in experiment [1], the Kd is 140 nM, the koff stood at 0.00617 s⁻¹ and the kon amounted to 44300 M⁻¹ s⁻¹. In addition, in experiment [2], the Kd is 10.3 nM, the koff is 0.00364 s⁻¹ and the on-rate (kon) is 354000 M⁻¹ s⁻¹.

B4: 1A1D-2 Fab A54E-Y105R double mutant (Fab, V domains shown)
VH: B1 VH with A54E, Y105R
VL: B1 VL
Take B4: in experiment [1], the Kd worked out at 27.4 nM, the koff was determined as 0.0012 s⁻¹ and the kon is 43900 M⁻¹ s⁻¹. Also, in experiment [2], the Kd was 7.11 nM, the koff worked out at 0.00158 s⁻¹ and the kon stood at 222000 M⁻¹ s⁻¹.
